Test results from patent US20090149389A1 (PURDUE RESEARCH FOUNDATION, published 2009).

What was measured:
Assay in all cases: cell-based or functional assay
PKB β (h) = PKB β (h) (human (h), UniProt P31751 1-481, limits assumed)
Syk (h) [1] = biological target: T1, Syk (h) (human (h), UniProt P43405 1-635)
MKK4 (m) = biological target: T2, MKK4 (m) (mouse (m), UniProt P47809 35-397, limits assumed)
T2 sequence (looked up): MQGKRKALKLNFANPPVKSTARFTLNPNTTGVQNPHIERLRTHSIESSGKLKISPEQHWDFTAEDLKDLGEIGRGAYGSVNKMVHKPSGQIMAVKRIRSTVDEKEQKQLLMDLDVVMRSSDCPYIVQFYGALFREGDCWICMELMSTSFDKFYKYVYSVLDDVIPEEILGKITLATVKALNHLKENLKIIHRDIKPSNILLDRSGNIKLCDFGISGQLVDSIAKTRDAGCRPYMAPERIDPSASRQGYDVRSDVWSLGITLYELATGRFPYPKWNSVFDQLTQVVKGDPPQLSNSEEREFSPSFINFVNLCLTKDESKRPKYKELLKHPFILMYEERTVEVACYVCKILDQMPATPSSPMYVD

Met (h) = Met (h) (human (h), UniProt P08581 974-1390, limits assumed)
Met (h), sequence (P08581 974-1390 limits assumed): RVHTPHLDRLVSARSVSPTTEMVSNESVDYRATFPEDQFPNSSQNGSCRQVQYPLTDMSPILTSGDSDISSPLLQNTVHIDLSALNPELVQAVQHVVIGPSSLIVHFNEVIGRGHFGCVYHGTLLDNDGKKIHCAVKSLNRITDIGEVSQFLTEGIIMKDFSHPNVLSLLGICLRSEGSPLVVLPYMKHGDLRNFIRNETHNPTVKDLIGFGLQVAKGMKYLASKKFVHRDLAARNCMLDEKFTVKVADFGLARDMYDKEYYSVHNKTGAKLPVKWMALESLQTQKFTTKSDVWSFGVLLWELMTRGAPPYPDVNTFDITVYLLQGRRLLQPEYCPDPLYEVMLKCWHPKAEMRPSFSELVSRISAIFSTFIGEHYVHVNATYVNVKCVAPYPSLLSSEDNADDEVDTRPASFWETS

PDGFRβ (h) = PDGFRβ (h) (human (h), UniProt P09619 558-1106, limits assumed)
PDGFRβ (h), sequence (P09619 558-1106 limits assumed): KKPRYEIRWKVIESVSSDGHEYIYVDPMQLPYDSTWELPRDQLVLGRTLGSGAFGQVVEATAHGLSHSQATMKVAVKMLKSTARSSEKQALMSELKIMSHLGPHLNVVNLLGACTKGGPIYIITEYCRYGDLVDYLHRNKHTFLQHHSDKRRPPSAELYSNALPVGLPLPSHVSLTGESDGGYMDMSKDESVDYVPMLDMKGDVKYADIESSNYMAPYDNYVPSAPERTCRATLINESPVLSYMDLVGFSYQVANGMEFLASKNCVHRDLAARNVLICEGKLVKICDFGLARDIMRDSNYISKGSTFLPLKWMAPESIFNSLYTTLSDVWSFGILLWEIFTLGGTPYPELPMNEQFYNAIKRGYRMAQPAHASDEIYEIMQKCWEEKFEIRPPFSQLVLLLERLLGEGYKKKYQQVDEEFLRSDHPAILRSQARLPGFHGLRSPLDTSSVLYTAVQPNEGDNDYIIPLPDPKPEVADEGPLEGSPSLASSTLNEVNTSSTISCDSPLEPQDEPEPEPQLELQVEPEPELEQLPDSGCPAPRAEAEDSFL

IRAK4 (h) = biological target: T3, IRAK4 (h) (human (h), UniProt Q9NWZ3 1-460, limits assumed)
T3 sequence (looked up): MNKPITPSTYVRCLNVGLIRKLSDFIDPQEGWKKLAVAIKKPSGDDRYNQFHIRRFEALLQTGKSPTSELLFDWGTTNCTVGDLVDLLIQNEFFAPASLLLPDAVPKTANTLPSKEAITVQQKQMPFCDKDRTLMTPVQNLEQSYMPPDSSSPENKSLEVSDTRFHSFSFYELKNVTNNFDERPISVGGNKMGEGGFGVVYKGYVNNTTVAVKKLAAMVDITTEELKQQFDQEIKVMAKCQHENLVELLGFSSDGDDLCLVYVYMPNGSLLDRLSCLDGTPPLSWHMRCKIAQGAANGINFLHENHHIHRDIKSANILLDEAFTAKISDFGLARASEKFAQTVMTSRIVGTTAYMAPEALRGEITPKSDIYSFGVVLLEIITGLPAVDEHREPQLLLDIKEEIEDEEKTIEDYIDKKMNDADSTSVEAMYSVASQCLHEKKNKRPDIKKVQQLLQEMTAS

EGFR (h) = EGFR (h) (human (h), UniProt P00533 696-1210, limits assumed)
CKIB (h) = CKIB (h) (human (h))
EphA2 (h) = biological target: T4, EphA2 (h) (human (h), UniProt P29317 591-976, limits assumed)
T4 sequence (looked up): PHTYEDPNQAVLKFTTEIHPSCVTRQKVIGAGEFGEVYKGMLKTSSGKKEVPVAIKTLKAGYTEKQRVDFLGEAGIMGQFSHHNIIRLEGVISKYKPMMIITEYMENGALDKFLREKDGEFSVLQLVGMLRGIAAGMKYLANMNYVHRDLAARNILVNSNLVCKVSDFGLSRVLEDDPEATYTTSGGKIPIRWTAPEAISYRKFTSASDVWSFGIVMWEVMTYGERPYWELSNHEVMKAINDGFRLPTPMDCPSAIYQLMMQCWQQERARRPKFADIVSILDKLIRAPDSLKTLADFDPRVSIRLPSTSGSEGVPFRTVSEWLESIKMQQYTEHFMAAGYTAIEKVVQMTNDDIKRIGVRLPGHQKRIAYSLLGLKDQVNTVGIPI

Syk (h) [2] = biological target: T1, Syk (h); remark: listed apart in the source
Ret (h) = biological target: T5, Ret (h) (human (h), UniProt P07949 658-1114, limits assumed)
T5 sequence (looked up): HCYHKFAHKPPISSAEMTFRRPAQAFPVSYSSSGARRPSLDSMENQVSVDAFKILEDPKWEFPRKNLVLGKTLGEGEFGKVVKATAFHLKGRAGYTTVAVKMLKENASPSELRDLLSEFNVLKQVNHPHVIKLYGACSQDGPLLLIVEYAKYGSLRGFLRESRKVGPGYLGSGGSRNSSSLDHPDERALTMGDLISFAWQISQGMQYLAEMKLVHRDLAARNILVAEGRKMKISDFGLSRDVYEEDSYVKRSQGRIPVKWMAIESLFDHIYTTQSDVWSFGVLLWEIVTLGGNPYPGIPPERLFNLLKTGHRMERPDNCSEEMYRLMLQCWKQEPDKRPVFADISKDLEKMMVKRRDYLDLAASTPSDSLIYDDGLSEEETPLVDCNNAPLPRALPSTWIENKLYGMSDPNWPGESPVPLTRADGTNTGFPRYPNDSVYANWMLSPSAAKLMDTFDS

DYRK2 (h) = biological target: T6, DYRK2 (h) (human (h), UniProt Q92630 1-601, limits assumed)
T6 sequence (looked up): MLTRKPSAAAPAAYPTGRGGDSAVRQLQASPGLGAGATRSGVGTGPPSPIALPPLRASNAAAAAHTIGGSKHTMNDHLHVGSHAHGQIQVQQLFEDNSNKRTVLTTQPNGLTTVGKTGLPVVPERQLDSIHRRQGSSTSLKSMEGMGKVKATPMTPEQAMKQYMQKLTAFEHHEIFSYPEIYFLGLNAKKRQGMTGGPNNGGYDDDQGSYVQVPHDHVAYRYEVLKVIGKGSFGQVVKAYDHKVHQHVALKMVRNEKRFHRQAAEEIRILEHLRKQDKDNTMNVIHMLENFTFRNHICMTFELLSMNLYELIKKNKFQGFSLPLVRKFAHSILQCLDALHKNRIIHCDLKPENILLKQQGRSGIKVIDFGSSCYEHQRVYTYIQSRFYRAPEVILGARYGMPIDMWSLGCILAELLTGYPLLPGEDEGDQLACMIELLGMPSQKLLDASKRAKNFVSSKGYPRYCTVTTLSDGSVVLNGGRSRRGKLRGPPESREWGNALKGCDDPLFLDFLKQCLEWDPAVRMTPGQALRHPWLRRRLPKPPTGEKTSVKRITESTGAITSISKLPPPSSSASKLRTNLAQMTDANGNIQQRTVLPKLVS

KDR (tl) = KDR (tl) (UniProt P35968 790-1356, limits assumed)
KDR (tl), sequence (P35968 790-1356 limits assumed): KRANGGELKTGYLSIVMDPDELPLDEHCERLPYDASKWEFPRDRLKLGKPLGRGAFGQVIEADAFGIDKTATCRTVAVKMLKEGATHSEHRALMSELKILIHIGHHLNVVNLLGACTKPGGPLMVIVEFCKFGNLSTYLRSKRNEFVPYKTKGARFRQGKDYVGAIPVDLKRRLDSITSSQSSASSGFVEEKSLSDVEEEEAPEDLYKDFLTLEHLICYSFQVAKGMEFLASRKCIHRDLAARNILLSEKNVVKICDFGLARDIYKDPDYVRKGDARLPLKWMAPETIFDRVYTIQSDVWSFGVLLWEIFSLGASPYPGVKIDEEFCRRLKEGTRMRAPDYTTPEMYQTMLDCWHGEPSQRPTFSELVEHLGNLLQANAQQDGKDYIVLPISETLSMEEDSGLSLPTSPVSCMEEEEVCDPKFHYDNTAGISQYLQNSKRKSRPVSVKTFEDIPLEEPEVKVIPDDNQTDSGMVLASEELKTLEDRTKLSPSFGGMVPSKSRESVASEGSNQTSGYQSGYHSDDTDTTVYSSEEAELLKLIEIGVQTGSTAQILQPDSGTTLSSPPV

PKB β (h), sequence (P31751 whole entry): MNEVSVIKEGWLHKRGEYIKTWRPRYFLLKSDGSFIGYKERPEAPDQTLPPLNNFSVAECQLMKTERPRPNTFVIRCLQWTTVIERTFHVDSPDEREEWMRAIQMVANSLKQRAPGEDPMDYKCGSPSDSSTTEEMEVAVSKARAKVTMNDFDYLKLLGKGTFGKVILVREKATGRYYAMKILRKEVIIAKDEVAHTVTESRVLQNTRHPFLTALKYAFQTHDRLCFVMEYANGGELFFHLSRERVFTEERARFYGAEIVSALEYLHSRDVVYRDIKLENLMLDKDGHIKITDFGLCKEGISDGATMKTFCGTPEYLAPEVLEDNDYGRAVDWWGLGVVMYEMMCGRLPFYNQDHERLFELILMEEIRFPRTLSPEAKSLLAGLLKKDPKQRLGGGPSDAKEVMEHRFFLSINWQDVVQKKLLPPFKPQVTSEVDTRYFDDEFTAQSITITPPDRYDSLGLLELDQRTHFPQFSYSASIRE

Row | Binder | Profile-1 @ = 100 µm (kinase profiler assay) (PKB β (h)) | Profile-1 @ = 100 µm (kinase profiler assay) (Syk (h) [1]) | Profile-1 @ = 100 µm (kinase profiler assay) (MKK4 (m)) | Profile-1 @ = 100 µm (kinase profiler assay) (Met (h)) | Profile-1 @ = 100 µm (kinase profiler assay) (PDGFRβ (h)) | Profile-1 @ = 100 µm (kinase profiler assay) (IRAK4 (h)) | Profile-1 @ = 100 µm (kinase profiler assay) (EGFR (h)) | Profile-1 @ = 100 µm (kinase profiler assay) (CKIB (h)) | Profile-1 @ = 100 µm (kinase profiler assay) (EphA2 (h)) | Profile-1 @ = 30 µm (kinase profiler assay) (Syk (h) [2]) | Profile-1 @ = 30 µm (kinase profiler assay) (Ret (h)) | Profile-1 @ = 30 µm (kinase profiler assay) (DYRK2 (h)) | Profile-1 @ = 30 µm (kinase profiler assay) (KDR (tl))
1 | KAFAKLAARLYRKALARQLGVAA | 28 | 4 | 114 | 22 | 66 | 16 | 16 | 97 | 22 | – | – | – | –
2 | WLRRIKAWLRRIKALNRQLGVAA | – | – | – | – | – | – | – | – | – | 19 | 117 | 93 | 27
